{"source": "paper PMC5562876", "about": "“The integration of Gβ and MAPK signaling cascade in zygote development” (Scientific Reports, 2017)", "binders": {"B1": {"name": "GPA1 (purified, pull-down) (natural protein, Arabidopsis thaliana, UniProt P18064 1-383, looked up)", "chain": "MGLLCSRSRHHTEDTDENTQAAEIERRIEQEAKAEKHIRKLLLLGAGESGKSTIFKQIKLLFQTGFDEGELKSYVPVIHANVYQTIKLLHDGTKEFAQNETDSAKYMLSSESIAIGEKLSEIGGRLDYPRLTKDIAEGIETLWKDPAIQETCARGNELQVPDCTKYLMENLKRLSDINYIPTKEDVLYARVRTTGVVEIQFSPVGENKKSGEVYRLFDVGGQRNERRKWIHLFEGVTAVIFCAAISEYDQTLFEDEQKNRMMETKELFDWVLKQPCFEKTSFMLFLNKFDIFEKKVLDVPLNVCEWFRDYQPVSSGKQEIEHAYEFVKKKFEELYYQNTAPDRVDRVFKIYRTTALDQKLVKKTFKLVDETLRRRNLLEAGLL", "notes": "GPA1, G protein alpha subunit, Arabidopsis thaliana, At2G26300; fusion protein; also called WtGPA1; source: E. coli, purified (glutathione agarose beads)"}, "B2": {"name": "GPA1^Q222L (purified, pull-down) (natural protein, Arabidopsis thaliana, UniProt P18064 1-383, looked up)", "chain": "B1 chain with Q222L", "notes": "GPA1, G protein alpha subunit, Arabidopsis thaliana, At2G26300, with Q222L; fusion protein; source: E. coli, purified (glutathione agarose beads)"}, "B3": {"name": "AGG2 (purified, pull-down) (natural protein, Arabidopsis thaliana, UniProt Q93V47 1-100, looked up)", "chain": "MEAGSSNSSGQLSGRVVDTRGKHRIQAELKRLEQEARFLEEELEQLEKMDNASASCKEFLDSVDSKPDPLLPETTGPVNATWDQWFEGPKEAKRCGCSIL", "notes": "AGG2, G protein gamma subunit 2, Arabidopsis thaliana, At3G22942; fusion protein; source: E. coli, purified (glutathione agarose beads)"}, "B4": {"name": "MKK5 (purified, pull-down) (natural protein, Arabidopsis thaliana, UniProt Q8RXG3 1-348, looked up)", "chain": "MKPIQSPSGVASPMKNRLRKRPDLSLPLPHRDVALAVPLPLPPPSSSSSAPASSSAISTNISAAKSLSELERVNRIGSGAGGTVYKVIHTPTSRPFALKVIYGNHEDTVRRQICREIEILRSVDHPNVVKCHDMFDHNGEIQVLLEFMDQGSLEGAHIWQEQELADLSRQILSGLAYLHRRHIVHRDIKPSNLLINSAKNVKIADFGVSRILAQTMDPCNSSVGTIAYMSPERINTDLNHGRYDGYAGDVWSLGVSILEFYLGRFPFAVSRQGDWASLMCAICMSQPPEAPATASQEFRHFVSCCLQSDPPKRWSAQQLLQHPFILKATGGPNLRQMLPPPRPLPSAS", "notes": "MKK5, MAP kinase kinase 5, Arabidopsis thaliana, At3G21220; source: E. coli, purified (glutathione agarose beads)"}, "B5": {"name": "MKK4 (purified, pull-down) (natural protein, Arabidopsis thaliana, UniProt O80397 1-366, looked up)", "chain": "MRPIQSPPGVSVPVKSRPRRRPDLTLPLPQRDVSLAVPLPLPPTSGGSGGSSGSAPSSGGSASSTNTNSSIEAKNYSDLVRGNRIGSGAGGTVYKVIHRPSSRLYALKVIYGNHEETVRRQICREIEILRDVNHPNVVKCHEMFDQNGEIQVLLEFMDKGSLEGAHVWKEQQLADLSRQILSGLAYLHSRHIVHRDIKPSNLLINSAKNVKIADFGVSRILAQTMDPCNSSVGTIAYMSPERINTDLNQGKYDGYAGDIWSLGVSILEFYLGRFPFPVSRQGDWASLMCAICMSQPPEAPATASPEFRHFISCCLQREPGKRRSAMQLLQHPFILRASPSQNRSPQNLHQLLPPPRPLSSSSSPTT", "notes": "MKK4, MAP kinase kinase 4, Arabidopsis thaliana, At1G51660; source: E. coli, purified (glutathione agarose beads)"}, "B6": {"name": "AGB1 (purified, pull-down) (natural protein, Arabidopsis thaliana, UniProt P49177 1-377, looked up)", "chain": "MSVSELKERHAVATETVNNLRDQLRQRRLQLLDTDVARYSAAQGRTRVSFGATDLVCCRTLQGHTGKVYSLDWTPERNRIVSASQDGRLIVWNALTSQKTHAIKLPCAWVMTCAFSPNGQSVACGGLDSVCSIFSLSSTADKDGTVPVSRMLTGHRGYVSCCQYVPNEDAHLITSSGDQTCILWDVTTGLKTSVFGGEFQSGHTADVLSVSISGSNPNWFISGSCDSTARLWDTRAASRAVRTFHGHEGDVNTVKFFPDGYRFGTGSDDGTCRLYDIRTGHQLQVYQPHGDGENGPVTSIAFSVSGRLLFAGYASNNTCYVWDTLLGEVVLDLGLQQDSHRNRISCLGLSADGSALCTGSWDSNLKIWAFGGHRRVI", "notes": "AGB1, G protein beta subunit, Arabidopsis thaliana, At4G34460; source: E. coli, purified (glutathione agarose beads)"}, "B7": {"name": "AGG1 (purified, pull-down) (natural protein, Arabidopsis thaliana, UniProt Q9FDX9 1-98, looked up)", "chain": "MREETVVYEQEESVSHGGGKHRILAELARVEQEVAFLEKELKEVENTDIVSTVCEELLSVIEKGPDPLLPLTNGPLNLGWDRWFEGPNGGEGCRCLIL", "notes": "AGG1, G protein gamma subunit 1, Arabidopsis thaliana, At3G63420; fusion protein; source: E. coli, purified (glutathione agarose beads)"}}, "assay_in_all_cases": "pull-down; purified fusion proteins from E. coli incubated with glutathione agarose beads, 25 mM Tris-HCl pH 7.5, 100 mM NaCl, 1 mM DTT, 1 hr; seven washes with 0.1% Triton X-100; eluted with 15 mM GSH; immunoblot", "conditions_in_all_cases": "both partners purified", "key": {"[1]": {"molecular_target": "T1, MPK6 (purified, pull-down) (Arabidopsis thaliana, UniProt Q39026 1-395)", "T1 construct": "MPK6, MAP kinase 6, Arabidopsis thaliana, At2G43790; fusion protein; source: E. coli, purified (glutathione agarose beads)", "T1 sequence (Q39026 whole entry, the tested form may be a part)": "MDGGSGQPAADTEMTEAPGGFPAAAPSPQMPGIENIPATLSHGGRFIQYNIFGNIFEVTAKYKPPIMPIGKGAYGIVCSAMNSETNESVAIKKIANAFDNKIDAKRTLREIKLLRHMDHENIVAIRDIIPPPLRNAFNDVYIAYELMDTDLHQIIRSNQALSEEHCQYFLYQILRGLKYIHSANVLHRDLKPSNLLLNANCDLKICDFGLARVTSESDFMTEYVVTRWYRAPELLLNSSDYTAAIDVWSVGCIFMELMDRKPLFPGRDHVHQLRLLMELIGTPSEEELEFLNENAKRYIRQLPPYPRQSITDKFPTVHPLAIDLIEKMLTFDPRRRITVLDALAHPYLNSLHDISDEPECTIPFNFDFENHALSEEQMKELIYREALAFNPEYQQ"}, "[2]": {"molecular_target": "B5"}, "[3]": {"molecular_target": "B4"}, "[4]": {"molecular_target": "B6"}}, "note": "Residue numbers refer to the chain shown, from its start. Names and notes keep the numbering of the source.", "data": [{"binder": "B1", "values": [{"measurement": "binding result", "setting": "[1]", "result": "binds"}]}, {"binder": "B2", "values": [{"measurement": "binding result", "setting": "[1]", "result": "binds"}]}, {"binder": "B3", "values": [{"measurement": "binding result", "setting": "[1]", "result": "binds"}, {"measurement": "binding result", "setting": "[2]", "result": "binds"}, {"measurement": "binding result", "setting": "[3]", "result": "binds"}]}, {"binder": "B4", "values": [{"measurement": "binding result", "setting": "[4]", "result": "binds"}]}, {"binder": "B5", "values": [{"measurement": "binding result", "setting": "[4]", "result": "binds"}]}, {"binder": "B6", "values": [{"measurement": "binding result", "setting": "[1]", "result": "binds"}]}, {"binder": "B7", "values": [{"measurement": "binding result", "setting": "[1]", "result": "binds"}, {"measurement": "binding result", "setting": "[2]", "result": "binds"}, {"measurement": "binding result", "setting": "[3]", "result": "binds"}]}]}
